The experiment has as its target Sulfolobus acidocaldarius GPN-loop GTPase Saci1281 (SaGPN) (Sulfolobus acidocaldarius). Description: SEC.

The stoichiometry N is the number of molecules, sites or subunits per partner or assembly. On to “Sulfolobus acidocaldarius GPN-loop GTPase Saci1281 (SaGPN) (enzyme)”, for which the stoichiometry N was found to be 2.
